Test results: patent publication US5807698

Biological target: human p33 CDK2 (human) (UniProt P24941)

Sequence of human cyclin E (P24864 16-410 limits assumed): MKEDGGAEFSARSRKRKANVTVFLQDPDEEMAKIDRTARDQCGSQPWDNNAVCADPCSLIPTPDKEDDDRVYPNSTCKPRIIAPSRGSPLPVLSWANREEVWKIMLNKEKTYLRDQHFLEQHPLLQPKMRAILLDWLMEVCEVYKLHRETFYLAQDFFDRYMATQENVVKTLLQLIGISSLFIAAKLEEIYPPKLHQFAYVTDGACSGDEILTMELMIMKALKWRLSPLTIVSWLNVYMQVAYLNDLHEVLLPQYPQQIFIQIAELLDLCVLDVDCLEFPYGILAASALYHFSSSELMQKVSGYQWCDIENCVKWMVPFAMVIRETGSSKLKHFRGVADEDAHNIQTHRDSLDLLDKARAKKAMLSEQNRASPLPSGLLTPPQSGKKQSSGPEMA

CDK2 histone H1 kinase activity in G1 cell extract: 22 fold
Substance: human cyclin E
